Test results published in US10704030B2, “P450-BM3 variants with improved activity” (Codexis, Inc., priority 2015, dated 2020).
Substitutions are numbered along the chain they refer to. In names and notes the source's numbering stands.

B1: Variant 10: P450-BM3 variant of SEQ ID NO: 8: K32R; Y52F; K95P; Q111R; G115R; I176V; L216Y; D232H; P347T; E349T; M491A; T577A; E619D; D722S (protein)
chain: MTIKEMPQPKTFGELKNLPLLNTDKPVQALMRIADELGEIFKFEAPGRVTRFLSSQRLIKEACDESRFDKNLSQALKFARDFAGDGLFTSWTHEPNWKKAHNILLPSFSQRAMKRYHAMMVDIAVQLVQKWERLNADEYIEVPEDMTRLTLDTIGLCGFNYRFNSFYRDQPHPFIVSMIRALDEVMNKLQRANPDDPAYDENKRQFQEDIKVMNDYVDKIIADRKASGEQSHDLLTQMLNGKDPETGEPLDDGNISYQIITFLIAGHETTSGLLSFALYFLVKNPHVLQKVAEEATRVLVDPVPSYKQVKQLKYVGMVLNEALRLWPTAPAFSLYAKEDTVLGGEYTLTKGDEVMVLIPQLHRDKTIWGDDVEEFRPERFENPSAIPQHAFKPFGNGQRACIGQQFALHEATLVLGMMLKHFDFEDHTNYELDIKETLTLKPEGFVVKAKSKKIPLGGIPSPSTEQSAKKVRKKAENAHNTPLLVLYGSNAGTAEGTARDLADIAMSKGFAPQVATLDSHAGNLPREGAVLIVTASYNGHPPDNAKQFVDWLDQASADEVKGVRYSVFGCGDKNWAATYQKVPAFIDETLAAKGAENIADRGEADASDDFEGTYEEWRDHMWSDVAAYFNLDIENSEDNKSTLSLQFVDSAADMPLAKMHGAFSTNVVASKELQQPGSARSTRHLEIELPKEASYQEGDHLGVIPRNYEGIVNRVTARFGLSASQQIRLEAEEEKLAHLPLAKTVSVEELLQYVELQDPVTRTQLRAMAAKTVCPPHKVELEALLEKQAYKEQVLAKRLTMLELLEKYPACEMKFSEFIALLPSIRPRYYSISSSPRVDEKQASITVSVVSGEAWSGYGEYKGIASNYLAELQEGDTITCFISTPQSEFTLPKDPETPLIMVGPGTGVAPFRGFVQARKQLKEQGQSLGEAHLYFGCRSPHEDYLYQEELENAQSEGIITLHTAFSRMPNQPKTYVQHVMEQDGKKLIELLDQGAHFYICGDGSQMAPAVEATLMKSYADVHQVSEADARLWLQQLEEKGRYAKDVWAG
modifications: P450_BM3
notes: Y52F; K95P; Q111R; G115R; I176V; L216Y; D232H; P347T; E349T; M491A; T577A; E619D; D722S
B2: Variant 11: P450-BM3 variant of SEQ ID NO: 8: K95P; Q111R; G115R; I176V; L216Y; E349T; M491A; T577A; E619D; D722S (protein)
chain: B1 chain with R32K, F52Y, H232D, T347P
modifications: P450_BM3
notes: Q111R; G115R; I176V; L216Y; E349T; M491A; T577A; E619D; D722S
B3: Variant 4: P450-BM3 variant of SEQ ID NO: 10: K32R; C48S; Y52F; I95P; Q111R; L216Y; D232H; P347T; E349K; M491A; N574T; E619D; D722S (protein)
chain: MTIKEMPQPKTFGELKNLPLLNTDKPVQALMRIADELGEIFKFEAPGSVTRFLSSQRLIKEACDESRFDKNLSQALKFARDFAGDGLATSWTHEPNWKKAHNILLPSFSQRAMKGYHAMMVDIAVQLVQKWERLNADEHIEVSEDMTRLTLDTIGLCGFNYRFNSFYRDQPHPFIISMVRALDEVMNKLQRANPDDPAYDENKRQCQEDIKVMNDYVDKIIADRKARGEQSHDLLTQMLNGKDPETGEPLDDGNISYQIITFLIAGHETTSGLLSFALYFLVKNPHVLQKVAEEAARVLVDPVPSYKQVKQLKYVGMVLNEALRLWPTAPAFSLYAKEDTVLGGEYTLKKGDEVMVLIPQLHRDKTIWGDDVEEFRPERFENPSAIPQHAFKPFGNGQRACIGQQFALHEATLVLGMMLKHFDFEDHTNYELDIKETLTLKPEGFVVKAKSKKIPLGGIPSPSTEQSAKKVRKKAENAHNTPLLVLYGSNAGTAEGTARDLADIAMSKGFAPQVATLDSHAGNLPREGAVLIVTASYNGHPPDNAKQFVDWLDQASADEVKGVRYSVFGCGDKTWATTYQKVPAFIDETLAAKGAENIADRGEADASDDFEGTYEEWRDHMWSDVAAYFNLDIENSEDNKSTLSLQFVDSAADMPLAKMHGAFSTNVVASKELQQPGSARSTRHLEIELPKEASYQEGDHLGVIPRNYEGIVNRVTARFGLSASQQIRLEAEEEKLAHLPLAKTVSVEELLQYVELQDPVTRTQLRAMAAKTVCPPHKVELEALLEKQAYKEQVLAKRLTMLELLEKYPACEMKFSEFIALLPSIRPRYYSISSSPRVDEKQASITVSVVSGEAWSGYGEYKGIASNYLAELQEGDTITCFISTPQSEFTLPKDPETPLIMVGPGTGVAPFRGFVQARKQLKEQGQSLGEAHLYFGCRSPHEDYLYQEELENAQSEGIITLHTAFSRMPNQPKTYVQHVMEQDGKKLIELLDQGAHFYICGDGSQMAPAVEATLMKSYADVHQVSEADARLWLQQLEEKGRYAKDVWAG
modifications: P450_BM3
notes: C48S; Y52F; I95P; Q111R; L216Y; D232H; P347T; E349K; M491A; N574T; E619D; D722S
B4: Variant 5: P450-BM3 variant of SEQ ID NO: 10: C48S; I95P; G115R; L216Y; S231R; D232H; M491A; N574T; T577A; E619D; D722S (protein)
chain: B3 chain with R32K, F52Y, R111Q, G115R, S231R, T347P, K349E, T577A
modifications: P450_BM3
notes: I95P; G115R; L216Y; S231R; D232H; M491A; N574T; T577A; E619D; D722S
B5: SEQ ID NO: 10: P450-BM3 parental backbone from the commercially available MCYP panel (MCYP-0343; Codexis) (protein)
chain: MTIKEMPQPKTFGELKNLPLLNTDKPVQALMKIADELGEIFKFEAPGCVTRYLSSQRLIKEACDESRFDKNLSQALKFARDFAGDGLATSWTHEINWKKAHNILLPSFSQQAMKGYHAMMVDIAVQLVQKWERLNADEHIEVSEDMTRLTLDTIGLCGFNYRFNSFYRDQPHPFIISMVRALDEVMNKLQRANPDDPAYDENKRQCQEDIKVMNDLVDKIIADRKARGEQSDDLLTQMLNGKDPETGEPLDDGNISYQIITFLIAGHETTSGLLSFALYFLVKNPHVLQKVAEEAARVLVDPVPSYKQVKQLKYVGMVLNEALRLWPTAPAFSLYAKEDTVLGGEYPLEKGDEVMVLIPQLHRDKTIWGDDVEEFRPERFENPSAIPQHAFKPFGNGQRACIGQQFALHEATLVLGMMLKHFDFEDHTNYELDIKETLTLKPEGFVVKAKSKKIPLGGIPSPSTEQSAKKVRKKAENAHNTPLLVLYGSNMGTAEGTARDLADIAMSKGFAPQVATLDSHAGNLPREGAVLIVTASYNGHPPDNAKQFVDWLDQASADEVKGVRYSVFGCGDKNWATTYQKVPAFIDETLAAKGAENIADRGEADASDDFEGTYEEWREHMWSDVAAYFNLDIENSEDNKSTLSLQFVDSAADMPLAKMHGAFSTNVVASKELQQPGSARSTRHLEIELPKEASYQEGDHLGVIPRNYEGIVNRVTARFGLDASQQIRLEAEEEKLAHLPLAKTVSVEELLQYVELQDPVTRTQLRAMAAKTVCPPHKVELEALLEKQAYKEQVLAKRLTMLELLEKYPACEMKFSEFIALLPSIRPRYYSISSSPRVDEKQASITVSVVSGEAWSGYGEYKGIASNYLAELQEGDTITCFISTPQSEFTLPKDPETPLIMVGPGTGVAPFRGFVQARKQLKEQGQSLGEAHLYFGCRSPHEDYLYQEELENAQSEGIITLHTAFSRMPNQPKTYVQHVMEQDGKKLIELLDQGAHFYICGDGSQMAPAVEATLMKSYADVHQVSEADARLWLQQLEEKGRYAKDVWAG
modifications: P450_BM3
B6: Variant 3: P450-BM3 variant of SEQ ID NO: 10: K32R; C48S; Y52F; I95P; L216Y; D232H; E349K; M491A; N574T; D722S (protein)
chain: B3 chain with R111Q, T347P, D619E
modifications: P450_BM3
notes: C48S; Y52F; I95P; L216Y; D232H; E349K; M491A; N574T; D722S

Assay: Validation of generalist properties: oxidation of diclofenac by lyophilized P450-BM3 variant, UPLC-MS
Type: biochemical
Conditions: [Diclofenac] = 1 mM
Summary of the method: (§1)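 Lyophilized lysate of E. coli-expressed P450-BM3 variant (stock standardized to 12 μM heme) was incubated 24 h at 30 °C with 1 or 2 mM substrate, 1.0 mM NADP+, 25 mM glucose, 0.5 mg/mL glucose dehydrogenase and 5% DMSO in 100 mM potassium phosphate. Acetonitrile-quenched samples were analyzed by UPLC-MS (positive ESI).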

Molecule	% Conv.
B1	+++ (10.01-15.00)
B2	++++ (15.01-20.00)
B3	++++ (15.01-20.00)
B4	++++ (15.01-20.00)
B5	++++ (15.01-20.00)
B6	++++ (15.01-20.00)

Same assay, conditions: [Diclofenac] = 1 mM; TON = [substrate]*% conversion/[P450]

Molecule	TON
B1	‡‡‡ (5001-10000)
B2	‡‡‡ (5001-10000)
B3	‡‡‡‡ (10000-50000)
B4	‡‡‡‡ (10000-50000)
B5	‡‡‡‡ (10000-50000)
B6	‡‡‡‡ (10000-50000)

Same assay, conditions: [Diclofenac] = 1 mM; fold improvement over parent MCYP-P1.2-B02

Molecule	FIOPC (B02)
B1	* (0.0-3.0)
B2	* (0.0-3.0)

Same assay, conditions: [Diclofenac] = 1 mM; fold improvement over parent MCYP-P1.2-B12

Molecule	FIOPC (B12)
B3	* (0.0-3.0)
B4	* (0.0-3.0)
B6	* (0.0-3.0)

Assay: Validation of generalist properties: oxidation of loratadine by lyophilized P450-BM3 variant, UPLC-MS
Type: biochemical
Conditions: [Loratadine] = 1 mM
Summary of the method: as §1

Molecule	% Conv.
B1	++ (5.01-10.00)
B2	+++ (10.01-15.00)
B3	++++ (15.01-20.00)
B4	++++ (15.01-20.00)
B5	++++ (15.01-20.00)
B6	++++ (15.01-20.00)

Same assay, conditions: [Loratadine] = 1 mM; TON = [substrate]*% conversion/[P450]

Molecule	TON
B1	‡‡ (1001-5000)
B2	‡‡‡ (5001-10000)
B3	‡‡‡‡ (10000-50000)
B4	‡‡‡‡ (10000-50000)
B5	‡‡‡‡ (10000-50000)
B6	‡‡‡‡ (10000-50000)

Same assay, conditions: [Loratadine] = 1 mM; fold improvement over parent MCYP-P1.2-B02

Molecule	FIOPC (B02)
B1	* (0.0-3.0)
B2	* (0.0-3.0)

Same assay, conditions: [Loratadine] = 1 mM; fold improvement over parent MCYP-P1.2-B12

Molecule	FIOPC (B12)
B3	* (0.0-3.0)
B4	* (0.0-3.0)
B6	* (0.0-3.0)

Assay: Validation of generalist properties: oxidation of imatinib by lyophilized P450-BM3 variant, UPLC-MS
Type: biochemical
Conditions: [Imatinib] = 1 mM
Summary of the method: as §1

Molecule	% Conv.
B1	++++ (15.01-20.00)
B2	++++ (15.01-20.00)
B3	++++ (15.01-20.00)
B4	++++ (15.01-20.00)
B5	++ (5.01-10.00)
B6	++++ (15.01-20.00)

Same assay, conditions: [Imatinib] = 1 mM; TON = [substrate]*% conversion/[P450]

Molecule	TON
B1	‡‡‡‡ (10000-50000)
B2	‡‡‡‡ (10000-50000)
B3	‡‡‡‡ (10000-50000)
B4	‡‡‡‡ (10000-50000)
B5	‡‡ (1001-5000)
B6	‡‡‡‡ (10000-50000)

Same assay, conditions: [Imatinib] = 1 mM; fold improvement over parent MCYP-P1.2-B02

Molecule	FIOPC (B02)
B1	** (3.01-5.0)
B2	* (0.0-3.0)
B3	*** (5.01-10.0)
B4	*** (5.01-10.0)

Same assay, conditions: [Imatinib] = 1 mM; fold improvement over parent MCYP-P1.2-B12

Molecule	FIOPC (B12)
B6	*** (5.01-10.0)

Assay: Validation of generalist properties: oxidation of gefitinib by lyophilized P450-BM3 variant, UPLC-MS
Type: biochemical
Conditions: [Gefitinib] = 1 mM
Summary of the method: as §1

Molecule	% Conv.
B1	++ (5.01-10.00)
B2	+ (0-5.00)
B3	++++ (15.01-20.00)
B4	++++ (15.01-20.00)
B5	++ (5.01-10.00)
B6	++++ (15.01-20.00)

Same assay, conditions: [Gefitinib] = 1 mM; TON = [substrate]*% conversion/[P450]

Molecule	TON
B1	‡‡ (1001-5000)
B2	‡ (0-1000)
B3	‡‡‡‡ (10000-50000)
B4	‡‡‡‡ (10000-50000)
B5	‡‡ (1001-5000)
B6	‡‡‡‡ (10000-50000)

Same assay, conditions: [Gefitinib] = 1 mM; fold improvement over parent MCYP-P1.2-B02

Molecule	FIOPC (B02)
B1	**** (10.01-15.00)
B2	* (0.0-3.0)

Same assay, conditions: [Gefitinib] = 1 mM; fold improvement over parent MCYP-P1.2-B12

Molecule	FIOPC (B12)
B3	*** (5.01-10.0)
B4	*** (5.01-10.0)
B6	*** (5.01-10.0)
